Reference: the supplement of paper PMC10567573
± gives the standard deviation.

Test: protein stability index of a GFP-peptide fusion (GPS, HEK-293T) (PSI 1-6); higher = more stable
[1] = treatment: DMSO, c terminus: a fixed tail appended
[2] = treatment: MLN4924 1 uM, 8 h, c terminus: a fixed tail appended
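Note: 24-mer peptide tiles fused after GFP, lentivirally expressed, FACS-sorted into six equal bins by GFP/DsRed ratio, decoded by Illumina sequencing, PSI is the read-weighted mean bin number.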

Sequence | protein stability index [1] | protein stability index [2] | protein stability index (treatment: DMSO, c terminus: native) | protein stability index (treatment: MLN4924 1 uM, 8 h, c terminus: native)
QRSYFLRIFDIKDGKLLWEQELYN [WASL] | 2.21 ± 0.48 | 2.08 ± 0.4 | – | –
GSDKQQQQQHIECVVCGDKSSGKH [NR2F2] | 4.93 ± 0.35 | 5.07 ± 0.18 | – | –
HDGSSYLNSVERYDPKTNQWSSDV [KLHL20] | 4.46 ± 0.25 | 4.27 ± 0.4 | – | –
LMYPSYTFSGDVQLAQDDIDGIQA [MMP1] | 4.1 ± 0.15 | 4.25 ± 0.25 | – | –
FNIGLPDNIVNCNEFLCTLQKKLD [ZNF277] | 2.48 ± 0.32 | 2.51 ± 0.35 | – | –
LLIPKEDGVITASEDRTIRVWLKR [WDFY1] | 2.42 ± 0.34 | 2.7 ± 0.51 | – | –
VGNNHESWGWDLGRNRLYHDGKNQ [SPSB1] | 3.83 ± 0.33 | 3.87 ± 0.42 | – | –
RSHEGETAYIRVKVDGPRSPSYGR [SRSF1] | 3.83 ± 0.19 | 3.73 ± 0.32 | – | –
KDPRQWTETHVRDWVMWAVNEFSL [ETS1] | 2.67 ± 1.1 | 2.23 ± 0.34 | – | –
GPYEGGGPVAGLDDSGGPTPSSYA [ZBTB22] | 4.95 ± 0.24 | 4.97 ± 0.17 | – | –
HSGSVVGAGLPQFQSISLRKIQFN [CLCN6] | 2.85 ± 0.24 | 3 ± 0.27 | – | –
NESWIKSHFSRLSEEKLALDNNAS [C10orf62] | 4.11 ± 0.14 | 4.29 ± 0.24 | – | –
IGGHLVRDNDHPDHSSRELSKILA [FUT8] | 3.92 ± 0.19 | 3.9 ± 0.18 | – | –
MQPTLLLSLLGAVGLAAVNSMPVD [CHGB] | 2.85 ± 0.68 | 2.94 ± 0.69 | – | –
GCSLHEEDTQRHETYHQQGQCQVL [TCAP] | 4.35 ± 0.14 | 4.32 ± 0.41 | – | –
LSSVEAYNIRTDSWTTVTSMTTPR [KLHL12] | 2.79 ± 0.31 | 3.23 ± 0.37 | – | –
GPLGDCLRDWEDLQQDFQNIQETH [TMEM120A] | 4.63 ± 0.31 | 4.41 ± 0.32 | – | –
DQTTSEETVGGAILDQTTSEDAVG [HDAC6] | 5.54 ± 0.2 | 5.54 ± 0.26 | – | –
KRIAHFDLKPENIMLLDKNVPNPR [DAPK3] | 3.68 ± 0.44 | 3.25 ± 0.77 | – | –
ETAGQKPLSVHRPPTSGCLGPVPR [TSPAN10] | 4.25 ± 0.46 | 4.22 ± 0.19 | – | –
ELSKDAQASAAPAAPLPERNSLSA [SLC29A1] | 5.15 ± 0.12 | 5.05 ± 0.27 | – | –
YFFCENDAEFLCVFCREGPTHQAH [TRIM15] | 2.26 ± 0.35 | 2.33 ± 0.54 | – | –

Sequence | protein stability index [1] | protein stability index [2] | protein stability index (treatment: DMSO, c terminus: native) | protein stability index (treatment: MLN4924 1 uM, 8 h, c terminus: native)
AGIGRTGTFCSLDICLAQLEELGT [PTPN9] | 2.23 ± 0.24 | 2.62 ± 0.64 | – | –
THVTLLITVTQSHLVIQNLFEGMI [CDS1] | 3.09 ± 0.21 | 3.22 ± 0.16 | – | –
DLRINLWNFEITNQSFNIVDIKPA [PPP2R2B] | 2.47 ± 0.86 | 2.4 ± 0.07 | – | –
FSRVCRLHRGQLSLFCLEDKELLC [TRIM35] | 2.22 ± 0.56 | 2.19 ± 0.18 | – | –
VTKMFQKIQDLIDDKDALVFVLID [TRIP13] | 2.72 ± 0.63 | 2.47 ± 0.17 | – | –
KIYDSPCLPEAEAMFAINADGVGD [RAD51] | 4.71 ± 0.19 | 4.65 ± 0.38 | – | –
VRLMRQLLVINESIESIKWMIEEK [LURAP1L] | 2.75 ± 0.35 | 2.86 ± 0.45 | – | –
LISSGMSSHKQGHTSSEYDMLREM [TAF7L] | 3.75 ± 0.23 | 3.84 ± 0.19 | – | –
SAGDADPENGEIKPASKPAGSSHT [ELOA2] | 5.42 ± 0.42 | 5.47 ± 0.44 | – | –
VGSLSWLRKQLQPTHCKYEGPRKA | 2.87 ± 0.24 | 2.9 ± 0.21 | – | –
GVILHSLKTQSLEGKRKAFYTCAS [OR4A15] | 2.48 ± 0.27 | 2.19 ± 0.27 | – | –
EKALQVLVDQSKKANSPLKGHERT [VPS39] | 4.06 ± 0.21 | 4.48 ± 0.26 | – | –
KDIAGEFKEQLQALIPYVLNPSKL [ATL3] | 2.19 ± 0.11 | 2.32 ± 0.18 | – | –
GNGKNLVDFTFVENVVHGHILAAE [NSDHL] | 3.08 ± 0.36 | 2.91 ± 0.51 | – | –
AILGEQRPRQRQRVYPKCTWLTTP [TCF25] | 2.46 ± 0.38 | 2.05 ± 0.27 | – | –
KQQKDPSEEAAVLQYASLVGQKCS [ATE1] | 4.84 ± 0.23 | 4.77 ± 0.2 | – | –
RFTTSKLQSFEDLASISTYGFRGE [MLH1] | 3.24 ± 0.47 | 3.12 ± 0.36 | – | –
DQDTLAPLPHPGAAPWPMAFPYQY [DVL3] | 3.15 ± 0.29 | 3.12 ± 0.25 | – | –
KVLILRNHGLVSVGESVEEAFYYI [ADD1] | 2.63 ± 0.53 | 2.72 ± 0.67 | – | –
TFQSSVLRVGIPENAPIGTLLLRL [PCDHGC5] | 2.23 ± 0.3 | 2.16 ± 0.12 | – | –
LGNVLFSPICLSTSLSLAQVGAKG [SERPINB5] | 2.48 ± 0.2 | 2.12 ± 0.23 | – | –
GMLAPAAGPAFDSDPEISDVDEDE [PPFIA4] | 5.35 ± 0.73 | 5.54 ± 0.24 | – | –

Sequence | protein stability index [1] | protein stability index [2] | protein stability index (treatment: DMSO, c terminus: native) | protein stability index (treatment: MLN4924 1 uM, 8 h, c terminus: native)
LWFYNTSLKFFLNKPMLADVVFEI [RHOBTB3] | 2.82 ± 0.32 | 3.04 ± 1.1 | – | –
ASLPSQKYPGPQAEGDSEGLSQGL [CHGA] | 5.2 ± 0.28 | 5.25 ± 0.17 | – | –
TPDIKSHYAFRIFDFDDDGTLNRE [CIB1] | 3.55 ± 0.15 | 3.44 ± 0.21 | – | –
QAYAHYLLATFPRRALAPPSAGFR [ANKRD9] | 2.31 ± 0.22 | 2.37 ± 0.23 | – | –
DLVDSLKLAVFMWLMTYVGAVFNG [RTN3] | 3.02 ± 0.59 | 3.2 ± 0.051 | – | –
ILGETQEEEDEILPRKDYESLDYD [CLCN6] | 5.33 ± 0.2 | 5.18 ± 0.086 | – | –
RRNSEFEIFVDCDINREQLNDIFH [TPH1] | 2.55 ± 0.096 | 2.73 ± 0.27 | – | –
GLPGKVFACLSVLFVTVTAVNLSV [KCNG1] | 3.36 ± 0.17 | 3.053 ± 0.022 | – | –
LCEEFRNRNQRIVQLIQDTRIHIL [CPN1] | 2.25 ± 0.13 | 2.4 ± 0.26 | – | –
GKKRCKDIKRLLVNFMYLQSLLQP [SMG5] | 2.428 ± 0.007 | 2.48 ± 0.41 | – | –
VGPLAQDPQSPMAGLRWLDSWDF [POMT2] | – | – | 3.34 ± 0.38 | 3.36 ± 0.3
PCFKWYTSPWSECTKTCGVGVRMR [ADAMTSL2] | 2.07 ± 0.17 | 2.33 ± 0.32 | – | –
GFGSKNTAFCTHVFPETAFIAVTS [TBX5] | 2.28 ± 0.42 | 2.09 ± 0.3 | – | –
TEELNKEVASNTEMIQTSKTEITD [KRT15] | 5.49 ± 0.29 | 5.52 ± 0.19 | – | –
LYRQHQAQIDQYVGLVTNQLSHIK [RTN2] | 2.08 ± 0.34 | 2.05 ± 0.4 | – | –
ECAMETTEEQTRQERQGPAKPEVL [NECAB1] | 5.57 ± 0.33 | 5.6 ± 0.23 | – | –
ERDFPCPVCRKTSRYRSLRPNRQL [TRIM39] | 2.93 ± 0.46 | 3.23 ± 0.45 | – | –
AFLELPHGSGGSGYPAAPPAVPFA [TBX6] | 2.55 ± 0.15 | 2.69 ± 0.39 | – | –
ILNLKKKECKDRGFEYDGKINAWD [NLN] | 2.97 ± 0.26 | 3.43 ± 0.6 | – | –
LPYTDGLSWELLDSHLGGNARGMG [CTBP1-DT] | 2.98 ± 0.28 | 3.29 ± 0.14 | – | –
MEPATAPRPDMAPELTPEEEQATK [PTPN9] | 5.71 ± 0.097 | 5.08 ± 0.48 | – | –
